The text below walks through data of IntAct's records for PubMed 18049475.

For assay [1], the target named is gck3_caeel gck-3 (UniProt G5EEN4).
Assay [2] has the same target. The source holds these as a separate data set.
Assay [3] has the same target. The source holds these as a separate data set.

Chain of gck3_caeel gck-3 (G5EEN4 whole entry): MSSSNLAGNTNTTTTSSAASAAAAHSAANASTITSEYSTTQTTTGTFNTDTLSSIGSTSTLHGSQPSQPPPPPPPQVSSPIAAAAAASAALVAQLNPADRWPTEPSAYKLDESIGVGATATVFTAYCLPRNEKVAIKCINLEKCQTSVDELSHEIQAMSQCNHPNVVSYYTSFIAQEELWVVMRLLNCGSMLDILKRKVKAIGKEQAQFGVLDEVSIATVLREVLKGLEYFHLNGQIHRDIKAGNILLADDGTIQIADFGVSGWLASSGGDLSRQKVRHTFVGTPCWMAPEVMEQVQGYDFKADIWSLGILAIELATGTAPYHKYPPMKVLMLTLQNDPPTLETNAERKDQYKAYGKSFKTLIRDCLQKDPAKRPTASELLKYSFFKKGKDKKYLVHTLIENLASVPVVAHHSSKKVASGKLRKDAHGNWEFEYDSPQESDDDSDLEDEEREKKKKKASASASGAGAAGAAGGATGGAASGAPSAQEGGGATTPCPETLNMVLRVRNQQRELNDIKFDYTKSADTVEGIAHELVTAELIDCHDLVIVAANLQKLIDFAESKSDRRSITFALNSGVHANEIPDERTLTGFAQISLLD

Turning to “Serine/threonine-protein kinase WNK (Caenorhabditis elegans), X5M5N0 F1133A”, the “effect of a mutation on the interaction” value in the assay with gck3_caeel gck-3 [1] is “decreasing interaction”. Regarding “Serine/threonine-protein kinase WNK (Caenorhabditis elegans), X5M5N0 F1133A;F1222A”, the “effect of a mutation on the interaction” value with gck3_caeel gck-3 [2] is “disrupting interaction”. Turning to “Serine/threonine-protein kinase WNK (Caenorhabditis elegans), X5M5N0 F1222A”, in the assay with gck3_caeel gck-3 [3], the “effect of a mutation on the interaction” value is reported as “decreasing interaction”.
